Test results reported in publication PMC3158102.

Biological target: IQ motif containing GTPase activating protein 1 (IQGAP1), endogenous in differentiated HL-60 cells (human (endogenous in HL-60)) (UniProt P46940)
Test: co-IP; rabbit anti-IQGAP1 antibody and Protein A/G agarose; lysates of differentiated HL-60 cells expressing CXCR2, vehicle or 100 ng/ml CXCL8 for 1 or 5 min; western blot for Cdc42, densitometry

Chain of Cdc42, endogenous in differentiated HL-60 cells expressing CXCR2, P60953 1-191 (natural protein; other documents disagree on this pair) (P60953 whole entry): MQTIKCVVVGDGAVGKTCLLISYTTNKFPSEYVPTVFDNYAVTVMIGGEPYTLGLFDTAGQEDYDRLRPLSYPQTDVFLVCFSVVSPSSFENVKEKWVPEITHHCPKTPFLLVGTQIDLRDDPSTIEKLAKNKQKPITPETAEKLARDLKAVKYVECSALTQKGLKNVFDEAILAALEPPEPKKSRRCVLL
Chain of IQ motif containing GTPase activating protein 1 (IQGAP1), endogenous in differentiated HL-60 cells (human (endogenous in HL-60)) (P46940 whole entry): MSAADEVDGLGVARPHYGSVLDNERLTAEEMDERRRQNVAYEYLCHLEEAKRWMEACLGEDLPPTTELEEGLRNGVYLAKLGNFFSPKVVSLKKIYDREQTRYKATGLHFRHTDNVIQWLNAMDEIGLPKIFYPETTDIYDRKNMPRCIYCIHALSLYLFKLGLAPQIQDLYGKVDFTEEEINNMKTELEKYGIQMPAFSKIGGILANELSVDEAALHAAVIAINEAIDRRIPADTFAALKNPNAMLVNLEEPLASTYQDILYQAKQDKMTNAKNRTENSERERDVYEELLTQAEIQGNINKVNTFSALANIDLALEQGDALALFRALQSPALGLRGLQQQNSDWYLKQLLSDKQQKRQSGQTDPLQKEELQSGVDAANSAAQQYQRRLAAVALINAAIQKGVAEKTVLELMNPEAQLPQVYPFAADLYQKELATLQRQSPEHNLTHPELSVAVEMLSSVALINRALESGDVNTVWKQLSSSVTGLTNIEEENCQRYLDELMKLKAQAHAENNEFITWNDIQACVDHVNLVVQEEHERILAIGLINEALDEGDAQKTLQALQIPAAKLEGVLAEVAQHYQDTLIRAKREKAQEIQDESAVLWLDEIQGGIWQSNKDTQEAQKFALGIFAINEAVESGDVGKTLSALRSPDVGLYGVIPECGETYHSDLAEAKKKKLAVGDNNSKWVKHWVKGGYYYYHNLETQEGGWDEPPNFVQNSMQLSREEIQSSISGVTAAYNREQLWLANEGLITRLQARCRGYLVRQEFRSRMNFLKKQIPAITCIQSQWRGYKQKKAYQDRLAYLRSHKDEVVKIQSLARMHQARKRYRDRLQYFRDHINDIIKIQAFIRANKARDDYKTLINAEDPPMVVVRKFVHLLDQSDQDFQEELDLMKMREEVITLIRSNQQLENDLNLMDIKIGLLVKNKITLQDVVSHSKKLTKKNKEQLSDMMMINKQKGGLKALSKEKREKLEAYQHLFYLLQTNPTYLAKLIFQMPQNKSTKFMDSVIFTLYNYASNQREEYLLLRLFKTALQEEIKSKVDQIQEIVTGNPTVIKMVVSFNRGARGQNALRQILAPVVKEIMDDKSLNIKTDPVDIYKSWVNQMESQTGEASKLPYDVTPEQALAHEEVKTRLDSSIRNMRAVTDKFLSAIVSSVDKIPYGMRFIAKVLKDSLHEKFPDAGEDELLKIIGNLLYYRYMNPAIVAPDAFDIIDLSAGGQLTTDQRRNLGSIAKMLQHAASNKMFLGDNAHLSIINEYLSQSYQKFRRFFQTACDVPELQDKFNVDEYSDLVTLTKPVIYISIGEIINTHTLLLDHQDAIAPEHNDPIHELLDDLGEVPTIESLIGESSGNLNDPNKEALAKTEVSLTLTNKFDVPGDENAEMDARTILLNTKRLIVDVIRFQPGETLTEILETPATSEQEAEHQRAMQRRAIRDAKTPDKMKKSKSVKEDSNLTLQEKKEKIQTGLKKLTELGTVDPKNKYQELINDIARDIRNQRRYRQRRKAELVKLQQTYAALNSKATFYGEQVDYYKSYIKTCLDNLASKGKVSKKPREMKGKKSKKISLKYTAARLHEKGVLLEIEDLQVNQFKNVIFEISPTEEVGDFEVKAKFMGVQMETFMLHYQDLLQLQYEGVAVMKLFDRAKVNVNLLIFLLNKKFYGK

Question: How did the fold increase in co-immunoprecipitated Cdc42 after 1 min of CXCL8 over untreated cells turn out when “Cdc42, endogenous in differentiated HL-60 cells expressing CXCR2, P60953 1-191 (natural protein; other documents disagree on this pair)” was run?
Answer: 1.36 fold
